Measured values reported in patent US20220257825A1.

Target: cell adhesion mediating proteins (CAMP), e.g. integrins, on the cells of the pig skin
Test: cell-based or functional assay

Average σmax (N), pulling test on pig skin stripes, 35 mg/ml, 30 min incubation: 5.29 N
average maximal adhesion strength compared with C16 (no RGD), pulling test on pig skin: 80%
B1: C16spRGD (eADF4 (C16) genetically fused at the C-terminus to the tag spRGD, …) (protein)
chain: MASMTGGQQMGRGSMGSSAAAAAAAASGPGGYGPENQGPSGPGGYGPGGPGSSAAAAAAAASGPGGYGPENQGPSGPGGYGPGGPGSSAAAAAAAASGPGGYGPENQGPSGPGGYGPGGPGSSAAAAAAAASGPGGYGPENQGPSGPGGYGPGGPGSSAAAAAAAASGPGGYGPENQGPSGPGGYGPGGPGSSAAAAAAAASGPGGYGPENQGPSGPGGYGPGGPGSSAAAAAAAASGPGGYGPENQGPSGPGGYGPGGPGSSAAAAAAAASGPGGYGPENQGPSGPGGYGPGGPGSSAAAAAAAASGPGGYGPENQGPSGPGGYGPGGPGSSAAAAAAAASGPGGYGPENQGPSGPGGYGPGGPGSSAAAAAAAASGPGGYGPENQGPSGPGGYGPGGPGSSAAAAAAAASGPGGYGPENQGPSGPGGYGPGGPGSSAAAAAAAASGPGGYGPENQGPSGPGGYGPGGPGSSAAAAAAAASGPGGYGPENQGPSGPGGYGPGGPGSSAAAAAAAASGPGGYGPENQGPSGPGGYGPGGPGSSAAAAAAAASGPGGYGPENQGPSGPGGYGPGGPGGGSGGRGDSPG
